In publication PMC8142856 (Cell, 2021):

B1: template-primer RNA (dsRNA)
RNA 1: CAUGCCAUGGCCUCUAAAAUGUCAGCUGCUCCCUAGCAUGCUACUACCGCGUAGCAUG
RNA 2: GCGGUAGUAGCAUGCUAGGGAGCAG
B2: SARS-CoV-2 nsp14 (enzyme)
chain: AENVTGLFKDCSKVITGLHPTQAPTHLSVDTKFKTEGLCVDIPGIPKDMTYRRLISMMGFKMNYQVNGYPNMFITREEAIRHVRAWIGFDVEGCHATREAVGTNLPLQLGFSTGVNLVAVPTGYVDTPNNTDFSRVSAKPPPGDQFKHLIPLMYKGLPWNVVRIKIVQMLSDTLKNLSDRVVFVLWAHGFELTSMKYFVKIGPERTCCLCDRRATCFSTASDTYACWHHSIGFDYVYNPFMIDVQQWGFTGNLQSNHDLYCQVHGNAHVASCDAIMTRCLAVHECFVKRVDWTIEYPIIGDELKINAACRKVQHMVVKAALLADKFPVLHDIGNPKAIKCVPQADVEWKFYDAQPCSDKAYKIEELFYSYATHSDKFTDGVCLFWNCNVDRYPANSIVCRFDTRVLSNLNLPGCDGGSLYVNKHAFHTPAFDKSAFVNLKQLPFFYYSDSPCESHGKQVVSDIDYVPLKSATCITRCNLGGAVCRHHANEYRLYLDAYNMMISAGFSLWVYKQFDTYNLWNTFTRLQ
B3: nsp9-nsp10 fusion protein (other)
chain: NNELSPVALRQMSCAAGTTQTACTDDNALAYYNTTKGGRFVLALLSDLQDLKWARFPKSDGTGTIYTELEPPCRFVTDTPKGPKVKYLYFIKGLNNLNRGMVLGSLAATVRLQAGNATEVPANSTVLSFCAFAVDAAKAYKDYLASGGQPITNCVKMLCTHTGTGQAITVTPEANMDQESFGGASCCLYCRCHIDHPNPKGFCDLKGKYVQIPTTCANDPVGFTLKNTVCTVCGMWKGYGCSCDQLREPMLQ

Key:
nsp12 (RdRp with …) = molecular target: nsp12 (RdRp with NiRAN);nsp7;nsp8;nsp9;nsp13 helicase;nsp10;nsp14 (ExoN / N7-MTase) (SARS-CoV-2;SARS-CoV-2;SARS-CoV-2;SARS-Co …, UniProt P0DTD1;P0DTD1;P0DTD1;P0DTD1;P0DTD1;P0DTD1;P0DTD1 …, ||||||); experiment: cryo-EM structure
SARS-CoV-2 nsp13 = SARS-CoV-2 nsp13 (SARS-CoV-2, UniProt P0DTD1 5325-5925); experiment: cryo-EM structure
SARS-CoV-2 nsp12 = SARS-CoV-2 nsp12 (SARS-CoV-2, UniProt P0DTD1); experiment: cryo-EM structure
SARS-CoV-2 nsp14 = molecular target: B2; experiment: SEC

Row | Binder | binding result (nsp12 (RdRp with …)) | binding result (SARS-CoV-2 nsp13) | binding result (SARS-CoV-2 nsp12) | binding result (SARS-CoV-2 nsp14)
1 | B1 | binds | – | – | –
2 | B2 | – | binds | binds | –
3 | B3 | – | – | binds | binds
